Assay results published in the DeepSol protein solubility set.

Test: soluble on expression in E. coli; label from the status in PepcDB or PDB records

| Sequence | soluble on expression in E. coli |
| --- | --- |
| AIAFKRKTAWFSDSVEKEVISFWVSEGGDISSWKTAGYLFSDDASSEDTKRIYGSEDYVKNRATVFHSSFLLACQPRQSVTSVPIGHYVLPPDFVQNEMKAIIGRFIWEKDEQVICEEQINPEVPKDILSGETEDHALRERSSQDDYQTVTSQSKVCSCCEMRQYPVNNMISGYVHIDQMRKYSGELKDFLPSLHGHDVSRSNDPTPPFHRKAV | soluble |
| MDLPDPYLPGAISLFEQLDKKLLVVLRDGRKLIGFLRSIDQFANLILEDVVERTFVEKYFCETGQGFMLIRGENVELAGEIDDTIETGLTQVSPEEFRRLEDEYIAKNPPKFLKRQAEKTEEHDA | not soluble |
| MSEPSNLVSKFQKLRVEASKIQNEFKEKPSYTLFKETLDISEKLLEKQFEFNDEMKQIQQNVMSELKSVKKELKQATSIKDLLEILEIIQKIFKKQDEFQQVQENQNKSIENLNSELKTVKAELNETKKQQESQEKLIDNSDKNLKLILESILKFQKSQDQIMMKIMEGSAVQDVPLGTVELTKIDPFFEILVIWTESCGIFASENHWKLRVCGSDTIRHIKLRINSLAKVDISSFRMVLRGKLLEDHHSLAYYNIQEGALIWLYSHLKMSETSSLMSQFQKLRVETSKIYNEFTEMVKNETSDMKKQQETQILKEQDEFQDEIRQEFLKIQENENKLIEKLMSELKTLKTELNETKNQISDLHNATKQQESQAQSMNDLLTKNSNNNLKMMLKIQEGQDRIMMKIQEGAAVKDVPIESGELAKNDSMFKIFVSWSIPGGIFVSENRRKLPVYESNTIRQIKLRINSLKSQDQMKIQEGEFAKKIEESVAPVKTPLEAPIEDKKLDNKKPFFKITVHLHGGPNASVYGRKYNHLVFDAHTIRDLKVRIKALIMQSSPIKLRTELYRLFFVYTLLEDHQTIAYYKFKKAQHLT | soluble |
| GPGSMQISPPFCGCLSEMYARSLVKQGAFSCFRSCVRVGSVAIIGGEAHMFKQLYKRDEKLRLYRSLIKGASRFPLRSRRDIVTEEVRSSFRHPLNDSLTNEEVDRKLVLGWERAEAIKTYAQNMYWFHSRDEVSKEMMHHSLERDRQRVREMERCNTVGAAPRKTPEVTEFKSSMYNVHPDYYEKIGQKPLTHTRDIWRARGQYGSDVGGPRQKFFVRRFKALFPQGW | not soluble |
| MLERIKSGVIGLDEILGGGFIKNTVNAVVGGMGCGKTIFCMNYLLEGLENGEKCMYASPDLDVDEFLRLAESMHWDFSKYIDNGQLNIMTVVAEDAASFIKMAFEYDRVAVDALSPLVIDVEAGSRKEIGWLLKNLKSKGTALITVEEPLRQNADLLLLLADSVISLRYTGYGGPFSRTLRVLKHRMSWHGDGVYPFYIIEGAGIVIDEKRGEGFELEEEMNLPERAKEKIAEMCKKGTLTLEDISKIKRRIP | not soluble |
| MGSDKIHHHHHHMIEQIGSVEEADAGKVLESLVLSFSPSLLPLRQRWRNNGLSADFLGDYVTTFFPGAGDDTTTADRQKHAKAAVSYIANELLENAMKYSAAESTRPITITLSLEAERITFIETNPVSRARAATFHSYATELIASDPMEMYLRILEEERSDDDGSGLGLITMINDYNASLSWRFEDPGEDTVMVSTIVQIPV | not soluble |
| MSLKIYFLPMLLSLFFLGACDKNDEIIPEDADENFITSVVMTVDGKSYTADITDNTVTITVPYTVSLNNAEVEFKYTTSATIIPDPETVTDWDNERTFRVTSYNGDAREYTYKVVKSEIESDGDVELKTTEEVASFAATKTTVVKGNLIIGSDAEEAEKITDISALASLKEVTGNIVIRNSYNGADLTGLDNIVSAGGLQVGSTDVASKATELHMISMKALETLSGDISVYNDQVTYVLFEKLATIEGSVMFNASSLQSFEFPVLTTVGQDLNLQGLNEENTAAGSIASLEIPELTSVGGVLSVNNLAKLTSMSFLKLKETGGLDFHTVPVMLETINLPEIETVNGSIIMEANMEAPPTGSFVPQRNDVLQAFGGMDKLTTIKGQIKIKNFTALKQLPDWSKITTLGSITLDYLEDVSGTLLLPNARFETFGETAPQIEIINKVQLSKIETAEDLSNVNFVITSLTNNKFPEITFKNIKDFTCKPTTNNTDYTISTIQHVYGNLNVTGQMRSNAKFPDLEIIDGYGYIQIPMFASITMPVLKEVGGQFYLSGNFTSCNLPLLSKVCCSASPVYYKEGEGSLAISLQSKSLDIPELLHVGGEGLFVNKATGITCDKLQTIDGTLQIKSATSLSQETLSMEKLETLHGVVFDGLTKFTDYTFFGKFIENGMITGESWSVTKCGYNPTFQNMKDKQYTEGHHHHHH | soluble |
| LRLCQVDRCTADMKEAKLYHRRHKVCEVHAKASSVFLSGLNQRFCQQCSRFHDLQEFDEAKRSCRRRLAGHNERRRKSSGE | soluble |
| MGSDKIHHHHHHVGCMKWDYGKMEPFRATGDGLFIMNEGNFQYGNATLSYYDPETKKVENEIFYRANAMKLGDVAQSMIVRDTIGWVVVNNSHVIFAISTNTFKEVGRITGLTSPRYIHFISDEKAYITQIWDYRIFIVNPKTYQITGYIECPDMTMETGSTEQMVQYGKYVYVNCWSYQNRILKIDTTTDKVVDQLTVGIQPTSLVMDKNFKMWTITDGGYKGSPYGYEEPSLYRIDAETFKIEKQFKFQLGDAPSEVQLNGAGDELYWINKDIWRMSVDEERVPVRPFLKYRDTKYYGLTVSPKNGDVYVADAIDYQQQGMIYRYTEDGELVDEFYVGIIPGAFCWK | not soluble |
| AQPKETILSIKDLVVKESRGLDAVKNLSLDVRAGEVVGIAGIDGNGQTELIQALAGLTKVENGSIHLNEKEITNRKPREITEMGVAHVPEDRHKYGLVLEMTLAENIGLQTYYQKPYSSTGILNYRMINKHARELIEEYDVRTPNELVPARALSGGNQQKAIIAREVDRDPDLLIVSQPTRGLDVGAIEYIHRRLIEQRDKNKAVLLVSFELDEILNVSDRIAVIHAGEIVGIVDPKETTENELGLLMAGYSLEEARAELSKVEAGETVE | not soluble |
| MLRLATPLRSGLLSSAIRRHSACCGGEHKMSEAELKMSKLLTEGIDGCTRVEVHDVSNGCGSMFDVVVEAAGFKGKSKVAQHKQVTSILREQIKDMHGLTIKTKAA | not soluble |
| MAHHHHHHMVSFSLIIYTSLRLAHACDARNCTLQQLGRQLEAVVTVCDESSSTTTTESTSERANNASSAADATRTGQGADAAQQVHSTTQAKRASLARDSDFKSSSEIAAFSVLRAWCPPPTARILILGMGGNSMAHALRVVLGAEALIEVVEVEPAVVVSCMQMGTLHESDTKTKVHLQDADQCLATLPPTTYDFIYMDIFEPIQATMRNLHPWVLATRTLLKPGGLLVMNDHHLPSAAGVAPYAKVFGEGNVQAVNLRGWSESIVVCVAPGDAATDKYSLDVSKTHADIAFNIYETLVPGWLPHFSWLVKAKTYRHEGVRCRLWTS | soluble |
| LQSKLSLPKIPNVIECFDISHLSGTATVGSMVQFRGGRPDKHNYRRFKIESVEGIDDFASIAEVVRRRYSRLLEDKHEMPDLIIIDGGKGQLSSAFQELRKLRVKVPIISIAKREEEIYVPGLKSPLPIKKDEKASLFVQEIRDEAHRFAINYNRLLRQKALIQK | not soluble |
| MKVPEAAISRLITYLRILEELEAQGVHRTSSEQLGELAQVTAFQVRKDLSYFGSYGTRGVGYTVPVLKRELRHILGLNRKWGLCIVGMGRLGSALADYPGFGESFELRGFFDVDPEKVGRPVRGGVIEHVDLLPQRVPGRIEIALLTVPREAAQKAADLLVAAGIKGILNFAPVVLEVPKEVAVENVDFLAGLTRLSFAILNPKWREEMMG | soluble |
| MAFRSKFAVLDESWTYVRVRRGPRRQNLWIWNALIDGVPFFVTGDRDYNTFRLLWLSLPKCEVHYTDDYPIYQVLYHHVVGKKYTHTVESYNSFCRSHLVRLARDTKAVNRSRAMIDYSLDLLNVMYPQLEHHHHHH | not soluble |
| GHHHHHHAIAENLYFQSMEYGHHARPDSKRPLDEGSPAAAGLTSKKANEALTRNRELTTVLVKNLPKSYNQNKVYKYFKHCGPIIHVDVADSLKKNFRFARIEFARYDGALAAITKTHKVVGQNEIIVSHLTECTLWMTNFPPSYTQRNIRDLLQDINVVALSIRLPSLRFNTSRRFAYIDVTSKEDARYCVEKLNGLKIEGYTLVTKVSNPLEKSKRTDSATLEGREIMIRNLSTELLDENLLRESFEGFGSIEKINIPAGQKEHSFNNCCAFMVFENKDSAERALQMNRSLLGNREISVSLADKKP | soluble |
| MKKVEILKTSRPSSAGGAARPSTASPTHGAPKIAIKTRPVADDVAPTAATVIEPSQKAMKESVRFLTDFGEISDAISDLLTSSPNFNVISAIGPQGAGKSTLLSMLAGNNSRQMYREYVFRPVSREANEQSRHQTIQIDIYIVNHQIFLDCQPMYSFSIMEGLPKVRGGRFDDSTAMSDTLRLTAFLLYVSHTVLVVSETHYDKVIIDTLRVAEQIRPYLAIFRPKLAIDRKTNLVFIKTKASSIDLAPTVIREREELLRLSFQDSRWLKVSQEPFKTLIVLEEIRVRREHLFEEGDEPDEAASLNEFDEQIAELREELQKNREDFTVETAAMDEKKWLDMCREVIRDKTLHKTLKEYQRAMTDGVRTHFDNGFHAERDANKFFS | not soluble |
| SESETRVKSVRTGRKPIGNPEDEQETSKPSDDEFLRGKRVLVVDDNFISRKVATGKLKKMGVSEVEQCDSGKEALRLVTEGLTQREEQGSVDKLPFDYIFMDCQMPEMDGYEATREIRKVEKSYGVRTPIIAVSGHDPGSEEARETIQAGMDAFLDKSLNQLANVIREIESKR | not soluble |
| MPLTFAHSFADAVPSLSVPWRAEQWPDPRIIVFNHELGQELGIDEASLLSNITQQGHAQAYSGHQFGQFNPLLGDGRALVLGDCAQTNAPHGQFEISLKGSGPTPFARRGDGRATLGPMLREYLISEALHGLGIPTTRSLAVITTGTDVQRERLLPGAVVVRVAQNHLRVGSVQCAAMRDDDSLAALVRYALSSHEDGVSDAEAAGLLLRRVSTSQAKLVAQWMRFGFVHGVMNTDNVTLSGQTIDFGPCAFIDSFHPQAVFSSIDSHGRYSFGRQPSIMGWNIARLAEALLPLMSIDEARNIVHEFPDMYRRSWLDEMADAVGISPDDDHAAGVLDDLVALLDVHRPDYAQFMRSLSDGTTVSLFPWAQQWEAEVSSLRVAAPRNPVYVPRNYLVEDALEHAMNADMSVFSLLVEAGKNPYLREKRFEKLENPAPETWQDYVTYCGT | not soluble |
| MLADKVKLSAKEILEKEFKTGVRGYKQEDVDKFLDMIIKDYETFHQEIEELQQENLQLKKQLEEASKKQPVQSNTTNFDILKRLSNLEKHVFGSKLYD | not soluble |
| MMKLKVYADRMSQPSRAVIIFCKVNGIQFDEVLISLAKRQQLSPEFKDINPLGKVPAIVDGRLKLFESHAILIYLSSAFPSVADHWYPNDLSKRAKIHSVLDWHHTNLRRGAAGYVLNSVLGPALGLPLNPKAAAEAEQLLTKSLSTLETFWLKGNAKFLLGSNQPSIADLSLVCELMQLQVLDDKDRLRLLSTHKKVEQWIENTKKATMPHFDETHEILFKVKEGFQKRREMGTLSKPGLQSKI | soluble |
| MKDTLKIGLLGLGTVGTGVLTLLKEHQEKISQVTGMNVVIEKAFVRNLETKQAQAEEYGLSLTTSIDDILEDKEIQIVVELMGTIEPAKTYIMKALEKGKHIVTANKDLLAQHGSELVALAQKHHCDLYYEASVAGGIPILRTIANSLAADNIQQVLGIVNGTTNYMLTQMVSADKSYEEALAEAQALGFAEADPTNDVDGIDAAYKMVILSQFAFGMNVSLPQVDIRGIRGLSLDDVAMAKQLGYEIKLIGSAEQNENSISVEVAPMLVNQKHPIASVRNEYNAVFIKSAGVGESMYYGPGAGAKPTATSVVSDLITIAKNIRLATTGHMFNSYQHKTQLTSSENVFGQYYFSLDVPDTPGQFLQLTQLMTKAEVSFDQLVQQKSDGQRARIVAITHQISKAQMQQVVIAIQNTEAFQLLNVMKVIGDE | not soluble |
